Laboratory results: patent US20210371506A1

Columns and labels:
[1] = target: Aβ1-42 fibrils (human); experiment: SPR, Biacore T200; Aβ1-42 fibrils amine-coupled to CM5 chip, antibody flowed over
[2] = target: Aβ1-42 monomer (human); experiment: SPR, Biacore T200; IgG captured on Protein A chip, Aβ1-42 monomer flowed over
Sequence of Aβ1-42 monomer (human) (peptide, as listed by the source): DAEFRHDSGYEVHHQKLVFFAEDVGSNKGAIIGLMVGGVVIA

Sequence of Aβ1-42 fibrils (human) (peptide, as listed by the source): as above

Kd [1]: 0.0752 µM
Kd [2]: 3.2 µM
Substance: Aducanumab (antibody)
